Results taken from the supplement of paper PMC12042874.
± gives the uncertainty stated by the source.

Assay: amyloid nucleation score (Sup35N fusion, yeast selection) (log enrichment); library NNK2; higher = more nucleation; inactive = no reads after selection
Method in brief: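 Using DiMSum, nucleation scores were taken as the log enrichment of output over input reads, centred on the mode score of non-aggregating sequences. The input and output reads came from Illumina sequencing of plasmid inserts, with sequences under 100 input reads excluded. The yeast were psi-negative, expressed Sup35N fused to peptides of 20 random codons, were induced with 100 μM copper sulfate for 24 hours, and were grown 7 days at 30°C on medium lacking adenine and uracil.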

| Substance | amyloid nucleation score |
| --- | --- |
| RNIRWPAHISAGDKGVSGEF | -0.65 ± 1 |
| CKYFLLVFIVVNYFGLGPMP | inactive |
| YPCVMFFPEPGEYCLVYRC | -0.608 ± 1.1 |
| LYRSSLRFMPTIICETVWMY | inactive |
| SALSLICDRWFDCFLRGTQY | 3.66 ± 0.15 |
| KVLATMGDIGVVLSVMLVPV | 1.33 ± 0.3 |
| VTNHV | 0.895 ± 0.33 |
| SLSGRLMNFYIMQNSIPTWW | 6.792 ± 0.041 |
| FMGFTISFFVRDFAPDLTKR | 3.1 ± 0.064 |
| VCSGGLQDSRGYCCYPVGRM | 1.31 ± 0.32 |
| QGLIFVSLFRCCSLCRQYTD | 2.72 ± 0.18 |
| VGGSDSLNFIAIGKTFCVQV | 0.186 ± 0.27 |
| FWIDYLVKFCCDLRMRMILK | 1.64 ± 0.2 |
| WVTSDRYKRALARKSHEQRN | 0.423 ± 0.24 |
| VKHTFLRKFWMHRSIESYGH | -0.111 ± 0.38 |
| EAHILRLYMLSRLSGIVHMV | 0.434 ± 0.56 |
| ITHCLTAFSVLWILVYVW | inactive |
| TGFMVTFASST | 0.02 ± 0.22 |
| FSGRKPSIVLHHSSECQP | 2.38 ± 0.2 |
| RNARDSQYDISGACGLFRDR | -0.287 ± 0.27 |
| NMDSGLVMVVLVCDDYMTTT | 0.119 ± 0.61 |
| SSRVDLLLLVETAFARSRIW | 3.31 ± 0.08 |
| LRTYYPRNVGA | -0.117 ± 0.5 |
| HFRSLALISLAEKFITRIEK | -0.13 ± 0.22 |
| ILKRMLRCIYNFNISVWIIR | -0.578 ± 0.31 |

| Substance | amyloid nucleation score |
| --- | --- |
| NRWMRGDTVWNVGWWSPNWG | 0.173 ± 0.46 |
| HFKSDSSSSEMTRLVEPGGV | -0.125 ± 0.63 |
| GTLWRFKESTMGLTGITAGT | 0.987 ± 0.4 |
| DGFRGLGLFHTY | -0.561 ± 0.31 |
| QLVNMRTCLLSRDLRLLELL | -0.318 ± 0.45 |
| DGKMNPVSAY | inactive |
| YPSCKGSMPVFYSFPGGENA | 0.524 ± 0.5 |
| DWWLNGLFP | inactive |
| HCCKSVRLESIRMRCGACYL | 0.007 ± 0.56 |
| ITWGFNVFMFVVPSWS | 8.67 ± 0.035 |
| SWFVRLGTRNWYTLRRVVIG | -0.315 ± 0.29 |
| RRNTLRYARMKSRYSFAP | -0.674 ± 0.79 |
| VVSKLFRDFYWRMLKSNMGW | 0.448 ± 0.62 |
| GRCSSSLRICRSNWGAY | 0.45 ± 0.22 |
| FYLFQWCK | -0.889 ± 1.1 |
| SYTMVTLPSPSL | -0.224 ± 0.23 |
| PRLNISLVMCNMFVGRGRFH | 8.705 ± 0.039 |
| SSFYTSGYPQNVSARGLGAE | 0.627 ± 0.56 |
| DCLNRLY | 0.138 ± 0.76 |
| EGTFGAPFVTSLLSLRFECV | -0.85 ± 0.63 |
| NERFFKILCWLFRRNSFTIE | -2.24 ± 1 |
| LFEMP | 0.728 ± 0.74 |
| VSNKDVLSQDMAKLIWW | 0.81 ± 0.22 |
| YVATVWPLQSKRLSHRLMNG | 0.695 ± 0.43 |
| SLFFFR | 5.03 ± 0.06 |

| Substance | amyloid nucleation score |
| --- | --- |
| HRPNCFRWPGLRVLFWYRK | -0.326 ± 0.45 |
| RLSLGKGAVTDT | 0.837 ± 0.19 |
| YNSCSYEIILGDFLWLLTGQ | 0.624 ± 0.2 |
| SCRLFVLYALLFGLSVGCVL | inactive |
| GDYGPSDIMKKQFLFVSLVY | -0.744 ± 1.1 |
| PMFCSLVLRI | -0.383 ± 0.41 |
| MCELGFHNSPFSGTFLLLMF | 1.64 ± 0.12 |
| CSPCFLSCGPYNNGPE | 7.537 ± 0.074 |
| WDIFICLVL | -0.063 ± 0.74 |
| PSLVRRNTSLCL | 0.325 ± 0.41 |
| TTSVTGQC | -1.09 ± 0.55 |
| MWDNFPCAVVLFKLC | 0.696 ± 0.23 |
| YVQVFRSLDYNHHAKS | -0.508 ± 0.39 |
| LHFTYCGSVMNVANDMVFVQ | 0.106 ± 1 |
| HCYQTDRSHIICHELLHCFV | -0.74 ± 0.49 |
| RVMSHT | 0.658 ± 0.51 |
| PCSRPTLLPCHCGTTTTSHI | 2.4 ± 0.1 |
| LFHCLSELLVGSSNSRFVCE | 0.456 ± 0.42 |
| ASGNRTFVVMLLNRRKMMST | 0.008 ± 0.48 |
| GIPMSSPNGLDTYSTPMH | 2.63 ± 0.074 |
| SSSVSRPRCFFRSWFYIHVR | -1.21 ± 0.49 |
| LRHCVYVYSATSRWIC | 0.674 ± 0.43 |
| VLCFCRDFLFVLIQNPFTFP | inactive |
| VIYSELGYHREPVLCG | -0.972 ± 0.49 |
| LAWSVLNMFRKVAFN | 0.089 ± 1.1 |

| Substance | amyloid nucleation score |
| --- | --- |
| ALCKFRDFFVMYNTGWHTVQ | -0.935 ± 1.1 |
| IVGTDSQHVLVLQIFCVCLR | -0.326 ± 1.1 |
| PDFLAVGHVSTFVHFTVETG | 1.16 ± 0.38 |
| FCPFWDSWWGKPCRPAIDSA | 0.683 ± 0.74 |
| LASLSDFPFYLTWWS | -0.157 ± 0.45 |
| TNCSIMGTFSYFNDCSLGGT | 5.247 ± 0.051 |
| YLKMALVMIMYVITYRSTVG | 1.65 ± 0.31 |
| RITVEKHSQCALMLHRQYCV | 1.39 ± 0.16 |
| TLFLSMLLMASSCYMTCCGD | -0.119 ± 0.55 |
| VYNSGWQVGWAKGLWSSLYN | -0.409 ± 0.34 |
| GCCPAALFEFT | -1.07 ± 0.78 |
| VYSHILDYFACISYAITLVD | 2.91 ± 0.13 |
| KMEMRGCRMVTNMYC | -0.06 ± 0.33 |
| SNSHNSRSIAY | 0.475 ± 0.57 |
| SKQTRYSSCGIISGLVDPFA | -0.329 ± 0.23 |
| LMFTCVMSFWRLSVRVILNY | 0.277 ± 0.41 |
| FNRDK | -0.512 ± 0.76 |
| SSIVSSPVCPLCGWGWF | 5.55 ± 0.069 |
| YKSYSNPVLHHYSSLIPGPN | -0.001 ± 0.41 |
| IGVRPCTMRC | 0.23 ± 0.29 |
| PFILLGTPELVTNGEHAERG | 0.647 ± 0.66 |
| GILNRTRPFR | -0.595 ± 0.28 |
| SRTWAARNFLFRWVSPANFT | 0.119 ± 0.74 |
| CMGGQQPALGISSFTVVWLY | inactive |
| NICSTGPLFWNFLFVV | 1.83 ± 0.15 |

| Substance | amyloid nucleation score |
| --- | --- |
| TQIFYSLRILLVDKLVSCGA | -0.787 ± 0.39 |
| FLNPFNHREHPRVED | 0.775 ± 0.62 |
| WSRQHDSLMVLWGCRGYY | 0.148 ± 0.5 |
| NTNAHVRMVDLVSGCASQWL | 1.75 ± 0.3 |
| LFARWTFDNFSLRVVLQTRI | -0.861 ± 0.25 |
| NNSWQINIYNGVTRLIRVRA | 4.7 ± 0.039 |
| KIRFIPTPKYHEIYMNAAIG | -1.7 ± 0.75 |
| GCNRQMSARK | 4.29 ± 0.044 |
| GVRMQLFGTLMSSAHQVRVG | 0.69 ± 0.17 |
| LLAFHCGHQMCFGVINMSTG | 3.83 ± 0.065 |
| WFPRSNAYLCMCFFVLREYQ | 0.428 ± 0.66 |
| SPRRFLMKQGIHQVTLAHCH | -0.342 ± 0.76 |
| WSWLRICIS | 0.549 ± 0.32 |
| TCLAKLLFCKSTSKDRV | 0.063 ± 1.1 |
| ITKPLVALKNGYMVL | -0.177 ± 0.56 |
| AIRCMEVKRTKSLLLVDSLS | 0.154 ± 0.23 |
| IRRTDREQ | 0.053 ± 0.24 |
| LGRQWFRIARGG | 0.654 ± 0.32 |
| NSTKTRLSSDTTLDFLEATR | -0.299 ± 0.27 |
| RNSAHNLEMFYRGMWDGMCW | -0.429 ± 0.55 |
| TNWVDWESYISCGGNGFGGC | -0.92 ± 0.39 |
| IMSNGDRNAYYVKLHES | 0.123 ± 0.33 |
| LACIPGGKVNSPLGWHGFRD | 0.057 ± 1.1 |
| NLLLFWSSHLSNECGSNSLG | 4.66 ± 0.1 |
| LDTARVNGDSYWSL | 3.57 ± 0.11 |

| Substance | amyloid nucleation score |
| --- | --- |
| MVFVFKDSLIFSRSLYIMEC | -1.34 ± 0.41 |
| QIFRLDFDARDSWAKMLESL | 0.536 ± 0.12 |
| WYVYSQ | 3.25 ± 0.052 |
| MCQDGCHGFLVTADQPQSGA | -0.148 ± 0.42 |
| VVLYCFISLLKFIEIGEGHP | -1.24 ± 1.1 |
| IGNDFNANM | -0.754 ± 0.76 |
| RGLISSVFVVMFDACGVIRC | 5.605 ± 0.035 |
| HYKTMFRFVCHFCENGGDGL | 10.18 ± 0.06 |
| SGARPVYFWLLIPLSYKL | 0.285 ± 1 |
| IPPSLCARKLRCYYVGAEG | 0.249 ± 0.64 |
| LGYFTLSFS | 0.627 ± 0.81 |
| GWVLTSCGANGWRK | -0.371 ± 0.63 |
| CTSLRYFCARFELLSAHSKW | 0.199 ± 0.4 |
| RIYFGQIRGDW | 4.04 ± 0.12 |
| NMEQFTRSIKSIGKRFTVTV | -0.471 ± 0.76 |
| VSPLNGSVYGGDEVFGINLG | -1.95 ± 0.75 |
| DSEHYVMWLKWYLLFLTYTH | -0.307 ± 0.3 |
| TIDFWVRFYVRFYSRDGFYY | -2.33 ± 0.78 |
| LPCRFKKYALHNQSTTGFWI | -0.187 ± 0.65 |
| PKSHFSRFGYYKVFQRSGRS | -0.92 ± 1.1 |
| TSLFI | 0.487 ± 0.6 |
| YAKNYSILQACQLDHWEFGV | 4.04 ± 0.056 |
| GADGISCFGISDKLGYDKFL | -0.1 ± 1 |
| VGGLDKNHMVLDCLDKGCGM | 0.216 ± 0.62 |
| WYRLLGFAMD | -0.603 ± 1.1 |

| Substance | amyloid nucleation score |
| --- | --- |
| MELMNMV | -0.127 ± 0.65 |
| PYWFRFLSYVQMLEYFCAPV | -0.764 ± 0.36 |
| GLRNDGAEVINSQPFLAHMC | 0.497 ± 0.5 |
| CSIGLRCGNVMLPTEWVSNC | -0.763 ± 0.32 |
| MGFQVYLGRGLNDFKAE | 2.66 ± 0.11 |
| FFIQLSIPERFTVRVLIRRR | inactive |
| NSSVCVRNRCGVWIDLKGII | 5.06 ± 0.095 |
| SSIINMTDAVGWFLELKNGE | 0.177 ± 0.37 |
| YEHVIGVWYLGCQGGWVGDH | 0.354 ± 0.29 |
| SSFLDRAIGGEAGRCSVWMK | 0.856 ± 0.24 |
| LGIASLQNGSGIGAWQAY | 0.04 ± 0.76 |
| GRKCVTYSCPF | 0.185 ± 0.39 |
| VKWLYTLDSNFVLVFVPCLT | -0.078 ± 0.39 |
| SLAHQAFAEPSWTKVEE | 0.278 ± 0.26 |
| SNSCTPAGLETGNLK | inactive |
| TIYRSSSNNSQEHSLNLMFG | inactive |
| DRAVLRGVVSDNSV | 0.439 ± 0.74 |
| STYSPSSPHMLSYPFWARTP | -0.269 ± 0.76 |
| FFQLSYNIQASSNNLMASVS | inactive |
